# Test results from patent US20230357429A1 (JANUX THERAPEUTICS, published 2023).
# Positions count from the first letter of the chain named. In names and notes the source's numbering stands. Read-outs that look alike come from different tables or passages of the source. Where no end group is shown, it is not given here.
# T1: Human TROP2 ECD (31-274 AA), biotinylated (human, UniProt P09758 31-274, biotinylated (site not stated))
# T1 construct: also called tumor-associated calcium signal transducer 2; Human TROP2-biotin
# T1 sequence: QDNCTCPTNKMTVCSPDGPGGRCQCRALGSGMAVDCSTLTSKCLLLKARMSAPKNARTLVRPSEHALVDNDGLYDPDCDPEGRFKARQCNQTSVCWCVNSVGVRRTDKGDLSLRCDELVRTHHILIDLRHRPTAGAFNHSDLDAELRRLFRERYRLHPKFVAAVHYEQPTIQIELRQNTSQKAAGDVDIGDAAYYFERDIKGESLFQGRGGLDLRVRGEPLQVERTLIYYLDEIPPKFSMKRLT
# T2: Human TROP2 ECD (31-274 AA), biotinylated (human, UniProt P09758 31-274, biotinylated (site not stated))
# T2 construct: also called TROP2-biotin; Trop2-biotin
# T2 sequence: T1 sequence
# T3: Human TROP2 Full length (human, UniProt P09758 31-323)
# T3 sequence: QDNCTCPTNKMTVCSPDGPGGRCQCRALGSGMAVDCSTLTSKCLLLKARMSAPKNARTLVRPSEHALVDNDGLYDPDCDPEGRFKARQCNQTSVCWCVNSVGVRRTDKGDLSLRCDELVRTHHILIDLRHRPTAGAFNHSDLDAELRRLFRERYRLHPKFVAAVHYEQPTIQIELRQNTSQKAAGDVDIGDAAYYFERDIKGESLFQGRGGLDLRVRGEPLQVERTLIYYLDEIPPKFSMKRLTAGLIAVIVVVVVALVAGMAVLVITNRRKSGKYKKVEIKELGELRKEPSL
# T4: Cyno TROP2 Full length (cynomolgus monkey, UniProt P09758 31-323 (human entry))
# T4 chain: T3 sequence with M32V, S63N, I200V, M262V, T268S
# T5: Peptide-65 (cysteine pairing not given here; also: biotinylated, site not given here)
# T5 construct: mask peptide for the CD3 scFv
# T5 peptide: QGCGTIADPEPHCW
# T6: Peptide-66 (cysteine pairing not given here; also: biotinylated, site not given here)
# T6 construct: mask peptide for the CD3 scFv
# T6 peptide: GSQCLGPEWEVCPY
# T7: Peptide-67 (cysteine pairing not given here; also: biotinylated, site not given here)
# T7 construct: mask peptide for the CD3 scFv
# T7 peptide: VYCGPEFDESVGCM
# T8: Peptide-68 (cysteine pairing not given here; also: biotinylated, site not given here)
# T8 construct: mask peptide for the CD3 scFv
# T8 peptide: DWCWYSPDNDGLCD
# T9: Peptide-69 (cysteine pairing not given here; also: biotinylated, site not given here)
# T9 construct: mask peptide for the CD3 scFv
# T9 peptide: SECLVDLQSDPCYW
# T10: Peptide-71 (cysteine pairing not given here; also: biotinylated, site not given here)
# T10 construct: mask peptide for the CD3 scFv
# T10 peptide: VDCGPDGDESILCY
# T11: Peptide-72 (cysteine pairing not given here; also: biotinylated, site not given here)
# T11 construct: mask peptide for the CD3 scFv
# T11 peptide: AYCGPEFDESVGCM
# T12: Peptide-74 (cysteine pairing not given here; also: biotinylated, site not given here)
# T12 construct: mask peptide for the CD3 scFv
# T12 peptide: ASQCLGPEWEVCPY
# T13: Peptide-75 (cysteine pairing not given here; also: biotinylated, site not given here)
# T13 construct: mask peptide for the CD3 scFv
# T13 peptide: GSACLGPEWEVCPY
# T14: Peptide-70 (cysteine pairing not given here; also: biotinylated, site not given here)
# T14 construct: mask peptide for the CD3 scFv
# T14 peptide: YLCGPDGDETLACY
# T15: Peptide-73 (cysteine pairing not given here; also: biotinylated, site not given here)
# T15 construct: mask peptide for the CD3 scFv
# T15 peptide: VYCGPEFDESVGCA
# B1: PC-1 (bispecific antibody)
# light: GGVDFCKIYSWPVCHQGGGGSGGLSGRSDAGSPLGLAGSGGSDIQLTQSPSSLSASVGDRVSITCKASQDVSIAVAWYQQKPGKAPKLLIYSASYRYTGVPDRFSGSGSGTDFTLTISSLQPEDFAVYYCQQHYITPLTFGAGTKVEIKRTVAAPSVFIFPPSDEQLKSGTASVVCLLNNFYPREAKVQWKVDNALQSGNSQESVTEQDSKDSTYSLSSTLTLSKADYEKHKVYACEVTHQGLSSPVTKSFNRGEC
# heavy: not shown
# notes: anti-TROP2 wt
# B2: PC-31 (anti-TROP2 D109A; anti-CD3 F104A), masked polypeptide complex (bispecific antibody)
# light: B1 light with K7G, I8L, S10H, V13I, H15Y
# heavy: not shown
# notes: LC: TROP2 mask peptide + cleavable linker + anti-TROP2 LC; HC: anti-albumin single domain + CD3 mask peptide + cleavable linker + anti-CD3 scFv + anti-TROP2 Fab HC
# B3: TCE-8 (bispecific antibody)
# light: DIQLTQSPSSLSASVGDRVSITCKASQDVSIAVAWYQQKPGKAPKLLIYSASYRYTGVPDRFSGSGSGTDFTLTISSLQPEDFAVYYCQQHYITPLTFGAGTKVEIKRTVAAPSVFIFPPSDEQLKSGTASVVCLLNNFYPREAKVQWKVDNALQSGNSQESVTEQDSKDSTYSLSSTLTLSKADYEKHKVYACEVTHQGLSSPVTKSFNRGEC
# heavy: not shown
# B4: PC-1 + MTSP1 (bispecific antibody)
# light: B3 light
# chain: not shown
# modifications: Protease-treated product: both masks and the anti-albumin domain are cut off in the cleavable linkers.
# notes: not shown: The few linker residues left at the N-terminus of each chain after the MTSP1 cut
# B5: PC-5 + MTSP1 (bispecific antibody)
# light: B3 light
# chain: not shown
# modifications: Protease-treated product: both masks and the anti-albumin domain are cut off in the cleavable linkers.
# notes: as for B4
# B6: TCE-10 (anti-CD3 scFv R100A; anti-TROP2 wt) (bispecific antibody)
# light: B3 light
# heavy: not shown
# notes: scFv on the Fab heavy chain; also called TCE-10 (R100A)
# B7: TCE-22 (anti-CD3 scFv W112A; anti-TROP2 wt) (bispecific antibody)
# light: B3 light
# heavy: not shown
# notes: scFv on the Fab heavy chain; also called TCE-22 (W112A)
# B8: TCE-31 (anti-CD3 scFv W238A; anti-TROP2 wt) (bispecific antibody)
# light: B3 light
# heavy: not shown
# notes: scFv on the Fab heavy chain; also called TCE-31 (W238A)
# B9: TCE-27 (anti-CD3 scFv Y234A; anti-TROP2 wt) (bispecific antibody)
# light: B3 light
# heavy: not shown
# notes: scFv on the Fab heavy chain
# B10: TCE-21 (anti-CD3 scFv Y111A; anti-TROP2 wt) (bispecific antibody)
# light: B3 light
# heavy: not shown
# notes: scFv on the Fab heavy chain; also called TCE-21 (Y111A)
# Key:
# [1] = molecular target: T1, Human TROP2 ECD (31-274 AA), …; test: ELISA on immobilized TROP2
# [2] = molecular target: T16, CD3 (biotinylated CD3 antigen) (human, UniProt P07766 23-126, limits assumed, biotinylated (site not stated)); test: ELISA, captured biotin-CD3
# T16 construct: also called CD3ε; human CD3
# T16 sequence (P07766 23-126 limits assumed): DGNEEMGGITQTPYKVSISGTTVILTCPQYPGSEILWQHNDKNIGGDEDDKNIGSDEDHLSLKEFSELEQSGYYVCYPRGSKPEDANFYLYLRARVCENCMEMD
# [3] = molecular target: T2, Human TROP2 ECD (31-274 AA), …; test: ELISA, captured biotin-TROP2
# [4] = molecular target: T3, Human TROP2 Full length; test: cell-based or functional assay
# [5] = molecular target: T4, Cyno TROP2 Full length; test: cell-based or functional assay
# [6] = molecular target: T1, Human TROP2 ECD (31-274 AA), …; test: ELISA on immobilized TROP2; binder pre-treated with MTSP1
# [7] = molecular target: T1, Human TROP2 ECD (31-274 AA), …; test: as above; remark: listed apart in the source
# [8] = molecular target: T16, CD3 (biotinylated CD3 antigen); test: ELISA, TCE on captured biotin-CD3
# [9] = molecular target: T5, Peptide-65; test: ELISA, TCE on captured biotin-peptide
# [10] = molecular target: T6, Peptide-66; test: ELISA, TCE on captured biotin-peptide
# [11] = molecular target: T7, Peptide-67; test: ELISA, TCE on captured biotin-peptide
# [12] = molecular target: T8, Peptide-68; test: ELISA, TCE on captured biotin-peptide
# [13] = molecular target: T9, Peptide-69; test: ELISA, TCE on captured biotin-peptide
# [14] = molecular target: T10, Peptide-71; test: ELISA, TCE on captured biotin-peptide
# [15] = molecular target: T11, Peptide-72; test: ELISA, TCE on captured biotin-peptide
# [16] = molecular target: T12, Peptide-74; test: ELISA, TCE on captured biotin-peptide
# [17] = molecular target: T13, Peptide-75; test: ELISA, TCE on captured biotin-peptide
# [18] = molecular target: T16, CD3 (biotinylated CD3 antigen); test: ELISA, TCE on captured biotin-CD3; remark: listed apart in the source
# [19] = molecular target: T5, Peptide-65; test: ELISA, TCE on captured biotin-peptide
# [20] = molecular target: T6, Peptide-66; test: ELISA, TCE on captured biotin-peptide
# [21] = molecular target: T7, Peptide-67; test: ELISA, TCE on captured biotin-peptide
# [22] = molecular target: T8, Peptide-68; test: ELISA, TCE on captured biotin-peptide
# [23] = molecular target: T14, Peptide-70; test: ELISA, TCE on captured biotin-peptide
# [24] = molecular target: T10, Peptide-71; test: ELISA, TCE on captured biotin-peptide
# [25] = molecular target: T11, Peptide-72; test: ELISA, TCE on captured biotin-peptide
# [26] = molecular target: T15, Peptide-73; test: ELISA, TCE on captured biotin-peptide
# [27] = molecular target: T12, Peptide-74; test: ELISA, TCE on captured biotin-peptide
# [28] = molecular target: T13, Peptide-75; test: ELISA, TCE on captured biotin-peptide
# [29] = molecular target: T9, Peptide-69; test: ELISA, TCE on captured biotin-peptide
# [30] = molecular target: T15, Peptide-73; test: ELISA, TCE on captured biotin-peptide
# [31] = molecular target: T16, CD3 (biotinylated CD3 antigen); test: ELISA: biotinylated CD3 captured on neutravidin plates, TCE titrated, HRP secondary antibody
Binder,EC50 [18] [nM],EC50 [20] [nM],EC50 [21] [nM],EC50 [22] [nM],EC50 [23] [nM],EC50 [24] [nM],EC50 [25] [nM],EC50 [27] [nM],EC50 [28] [nM],also measured
B1,–,–,–,–,–,–,–,–,–,EC50 [1]: 49.4 nM
B2,–,–,–,–,–,–,–,–,–,EC50 [2]: 1080 nM; EC50 [3]: 694 nM
B3,–,–,–,–,–,–,–,–,–,HCT116 Cytotoxicity EC50 (pM) [4]: 83 pM; CyTROP2 HEK293 EC50 (pM) [5]: 0.1 pM
B4,–,–,–,–,–,–,–,–,–,EC50 [6]: 0.48 nM
B5,–,–,–,–,–,–,–,–,–,EC50 [7]: 0.25 nM
B6,–,–,–,–,–,–,–,–,–,EC50 [8]: 0.35 nM; EC50 [9]: 473 nM; EC50 [10]: 0.58 nM; EC50 [11]: 1.76 nM; EC50 [12]: 1.78 nM; EC50 [13]: 8.73 nM; EC50 [14]: 0.63 nM; EC50 [15]: 1.85 nM; EC50 [16]: 0.68 nM; EC50 [17]: 0.76 nM
B7,0.95,26.4,10.5,794,0.59,4.87,11.2,23.4,38.2,EC50 [19]: 220 nM; EC50 [26]: 12.2 nM
B8,24,6.34,5.96,2.29,8,112,5.66,5.33,7.08,EC50 [29]: 0.29 nM; EC50 [30]: 7.03 nM; EC50 [31]: 8.65 nM
B9,–,–,–,–,–,–,–,–,–,EC50 [30]: 0.35 nM
B10,592,49.1,77.7,381,11.9,106,76.9,64.2,95.6,EC50 [19]: 1080 nM; EC50 [29]: 572 nM
